Data taken from publication doi:10.1101/2021.08.12.455998.

Key:
[1] = molecular target: empty disulfide-stabilized HLA-A*02:01 molecule (HLA-A*02:01(Y84C/A139C) heavy chain with beta-2 microglobulin) (human); test: native MS
[2] = molecular target: empty disulfide-stabilized HLA-A*02:01 molecule (HLA-A*02:01(Y84C/A139C) heavy chain with beta-2 microglobulin) (human); test: nDSF thermal shift

Row | Binder | percent of dsA2 as dsA2/pep (AUC) at 10 V [1] | ΔTm [2] | Kd [1] | stoichiometry N [1]
1 | GLGGGGGGV [GV9] | 43% | 6.4 K |  | 
2 | LVPMVATV [LV8] |  | 11.6 K | 0.07 µM | 
3 | MVATV [MV5] |  |  |  | 2
4 | NLVPMVAT [NT8] |  |  | 30 µM | 
